Values quoted from earlier work as cited in publication PMC7561359.

Molecular target: IFNAR1 (Homo sapiens) (UniProt P17181)
UniProt P17181, sequence (P17181 28-436): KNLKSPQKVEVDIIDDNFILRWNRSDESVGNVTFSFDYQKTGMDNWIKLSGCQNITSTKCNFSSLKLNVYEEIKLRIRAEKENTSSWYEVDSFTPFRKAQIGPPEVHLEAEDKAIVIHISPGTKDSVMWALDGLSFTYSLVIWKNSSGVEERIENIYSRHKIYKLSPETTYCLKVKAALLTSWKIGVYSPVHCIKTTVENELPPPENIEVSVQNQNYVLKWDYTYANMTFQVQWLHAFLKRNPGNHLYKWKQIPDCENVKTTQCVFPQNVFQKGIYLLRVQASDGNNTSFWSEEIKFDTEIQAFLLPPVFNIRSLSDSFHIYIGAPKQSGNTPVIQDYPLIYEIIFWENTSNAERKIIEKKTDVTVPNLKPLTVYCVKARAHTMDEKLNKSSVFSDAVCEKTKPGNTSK

IFNβ (from UniProt P01574)
Kd: 100 nM
